According to patent CN108586611A (UNIV JINAN; ZHUHAI TAINUO MAIBO BIOTECHNOLOGY CO LTD; …, dated 2018):

Biological target: 破伤风毒素 (tetanus toxin) (Clostridium tetani, UniProt P04958 2-1315)
Sequence (P04958 2-457 limits assumed, chain 1 of 2): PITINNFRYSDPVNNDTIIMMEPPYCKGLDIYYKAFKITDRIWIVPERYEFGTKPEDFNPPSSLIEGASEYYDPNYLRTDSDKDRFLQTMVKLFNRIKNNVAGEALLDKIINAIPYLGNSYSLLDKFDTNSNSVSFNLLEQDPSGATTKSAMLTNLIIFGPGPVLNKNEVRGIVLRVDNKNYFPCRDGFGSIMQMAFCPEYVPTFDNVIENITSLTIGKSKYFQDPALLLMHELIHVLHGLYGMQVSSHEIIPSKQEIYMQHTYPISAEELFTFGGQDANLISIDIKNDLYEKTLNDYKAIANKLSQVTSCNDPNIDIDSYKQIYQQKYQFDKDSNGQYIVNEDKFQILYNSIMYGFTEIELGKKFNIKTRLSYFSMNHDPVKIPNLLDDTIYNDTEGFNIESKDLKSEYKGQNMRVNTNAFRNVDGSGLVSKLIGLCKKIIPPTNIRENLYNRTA
Sequence (P04958 458-1315 limits assumed, chain 2 of 2): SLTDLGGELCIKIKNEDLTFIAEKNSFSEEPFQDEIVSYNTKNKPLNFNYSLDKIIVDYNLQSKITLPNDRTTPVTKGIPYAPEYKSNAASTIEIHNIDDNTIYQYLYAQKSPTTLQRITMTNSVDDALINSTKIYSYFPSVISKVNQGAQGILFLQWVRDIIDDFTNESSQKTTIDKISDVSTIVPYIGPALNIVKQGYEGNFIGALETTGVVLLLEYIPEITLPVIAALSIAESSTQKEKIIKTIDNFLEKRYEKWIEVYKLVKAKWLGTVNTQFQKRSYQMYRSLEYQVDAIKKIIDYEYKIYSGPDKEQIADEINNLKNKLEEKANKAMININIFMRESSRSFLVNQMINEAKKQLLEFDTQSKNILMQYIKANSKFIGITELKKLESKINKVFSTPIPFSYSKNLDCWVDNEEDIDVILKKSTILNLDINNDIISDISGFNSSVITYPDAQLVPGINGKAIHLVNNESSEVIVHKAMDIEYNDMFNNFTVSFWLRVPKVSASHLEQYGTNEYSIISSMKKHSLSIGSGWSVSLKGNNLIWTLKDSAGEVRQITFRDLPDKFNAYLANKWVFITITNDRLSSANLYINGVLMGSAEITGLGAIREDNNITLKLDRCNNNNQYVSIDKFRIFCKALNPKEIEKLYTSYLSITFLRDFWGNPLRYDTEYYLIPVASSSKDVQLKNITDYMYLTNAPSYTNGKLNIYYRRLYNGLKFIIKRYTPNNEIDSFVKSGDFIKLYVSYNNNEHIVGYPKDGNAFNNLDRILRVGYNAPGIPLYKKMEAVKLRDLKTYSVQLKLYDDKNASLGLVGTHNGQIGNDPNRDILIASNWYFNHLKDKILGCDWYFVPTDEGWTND

B1: TRN1014抗体 (重组全人源抗破伤风毒素单克隆抗体) (antibody, V domains shown)
VH: EVQLVESGGDLVPPGGSLRLSCVASGFTFRNYWMNWVRQAPGQGLQWVASIKDDGTESQYLESVKGRFTISRDNAKNSLSLQMDSLRAEDTALYFCTRVGGFYFGSERYYKGGDDVWGQGTTVTVSS
VL: DIVLTQSPSSLSASVGDRVTFTCRASQTISNYLHWYQQKPGQAPELLIFAASNRQGGVPSRFRGSGSGTDFTLTISPLEADDFATYYCQQSYSSPRTFGQGTKLEIK
  Kd: 1.1 nM
  koff: 6.07e-05 s⁻¹
  kon: 55100 M⁻¹ s⁻¹
